B1: NRC3_wobSeed30_DR1_G7T_o1 (dsDNA)
DNA 1: GCACTATCAGGCCAAGGGTCACTCAAGATTAGTCCGGCGATTGACAGCGTAGAATGAAGG
DNA 2: CCTTCATTCTACGCTGTCAATCGCCGGACTAATCTTGAGTGACCCTTGGCCTGATAGTGC
B2: NRC3_wobSeed29_DR1_C13G_o1 (dsDNA)
DNA 1: GCGCTTACGGGTGAAAGGTTATAGCATGAATAGAATGCGATTGACAGCGTAGAATGAAGG
DNA 2: CCTTCATTCTACGCTGTCAATCGCATTCTATTCATGCTATAACCTTTCACCCGTAAGCGC
B3: NRC3_wobSeed53_DR2_T12C_o1 (dsDNA)
DNA 1: GCCCTTACGGGCCACGAGGTTATAGCACGACGAGCGGCGATTGACAGCGTAGAATGAAGG
DNA 2: CCTTCATTCTACGCTGTCAATCGCCGCTCGTCGTGCTATAACCTCGTGGCCCGTAAGGGC
B4: NRC3_wobSeed119_DR4_o1 (dsDNA)
DNA 1: GCGGAACGAGGGCATTCGAGTTGATAGCATGGCGATGCGATTGACAGCGTAGAATGAAGG
DNA 2: CCTTCATTCTACGCTGTCAATCGCATCGCCATGCTATCAACTCGAATGCCCTCGTTCCGC
B5: NRC3_wobSeed34_DR1_A24C_o1 (dsDNA)
DNA 1: GCATCGAAAGGTCGAAGGTGAGTCTACCCACCCGAAGCGATTGACAGCGTAGAATGAAGG
DNA 2: CCTTCATTCTACGCTGTCAATCGCTTCGGGTGGGTAGACTCACCTTCGACCTTTCGATGC
B6: NRC3_wobSeed34_DR1_G22C_o1 (dsDNA)
DNA 1: B5 DNA 1 with G22C, C24A
DNA 2: B5 DNA 2 with G37T, C39G
B7: NRC3_wobSeed23_DR0_A9G_o1 (dsDNA)
DNA 1: GCGGAACGGGGGCAAGTTGATAGCAGAGTTTGATGGGCGATTGACAGCGTAGAATGAAGG
DNA 2: CCTTCATTCTACGCTGTCAATCGCCCATCAAACTCTGCTATCAACTTGCCCCCGTTCCGC
B8: NRC3_wobSeed120_DR4_A14C_o1 (dsDNA)
DNA 1: GCCCGAGTAGGTTCCGAGGGGGCATTCAGTGCGAATGCGATTGACAGCGTAGAATGAAGG
DNA 2: CCTTCATTCTACGCTGTCAATCGCATTCGCACTGAATGCCCCCTCGGAACCTACTCGGGC
B9: NRC3_wobSeed120_DR4_G10A_o1 (dsDNA)
DNA 1: B8 DNA 1 with G10A, C14A
DNA 2: B8 DNA 2 with G47T, C51T
B10: NRC3_wobSeed13_DR0_T18G_o1 (dsDNA)
DNA 1: GCCGTCCAAGGTCAAGGGCAGTGAAAGAGACTCGAAGCGATTGACAGCGTAGAATGAAGG
DNA 2: CCTTCATTCTACGCTGTCAATCGCTTCGAGTCTCTTTCACTGCCCTTGACCTTGGACGGC
B11: NRC3_wobSeed117_DR4_A9C_o1 (dsDNA)
DNA 1: GCCGTCAACGTTCAACTAAGGTAACGTAAAGCACGCGCGATTGACAGCGTAGAATGAAGG
DNA 2: CCTTCATTCTACGCTGTCAATCGCGCGTGCTTTACGTTACCTTAGTTGAACGTTGACGGC
B12: NRC3_wobSeed2_DR0_C19A_o1 (dsDNA)
DNA 1: GCCCTAGTTGGTCAAGGTAACACACGCTATAGGTACGCGATTGACAGCGTAGAATGAAGG
DNA 2: CCTTCATTCTACGCTGTCAATCGCGTACCTATAGCGTGTGTTACCTTGACCAACTAGGGC
B13: NRC3_wobSeed112_DR4_T8A_o1 (dsDNA)
DNA 1: GCTAGCCAAGGTCAGATCGGGCCAGTATACGCTATAGCGATTGACAGCGTAGAATGAAGG
DNA 2: CCTTCATTCTACGCTGTCAATCGCTATAGCGTATACTGGCCCGATCTGACCTTGGCTAGC
B14: NRC3_wobSeed140_DR5_A22G_o1 (dsDNA)
DNA 1: GCAGAATGAGGTTATACGTAGGTCAGGGAAGAAAGTGCGATTGACAGCGTAGAATGAAGG
DNA 2: CCTTCATTCTACGCTGTCAATCGCACTTTCTTCCCTGACCTACGTATAACCTCATTCTGC
B15: NRC3_wobSeed3_DR0_A9G_o1 (dsDNA)
DNA 1: GCGCTCGGGGGACAAGGTCAGAGCTTTGTCCGTAGAGCGATTGACAGCGTAGAATGAAGG
DNA 2: CCTTCATTCTACGCTGTCAATCGCTCTACGGACAAAGCTCTGACCTTGTCCCCCGAGCGC
B16: NRC3_wobSeed130_DR5_C19T_o1 (dsDNA)
DNA 1: GCCTCGAAAGGTCGTGCTTAGGTGAGTATACCAAACGCGATTGACAGCGTAGAATGAAGG
DNA 2: CCTTCATTCTACGCTGTCAATCGCGTTTGGTATACTCACCTAAGCACGACCTTTCGAGGC
B17: NRC3_wobSeed130_DR5_A30G_o1 (dsDNA)
DNA 1: B16 DNA 1 with T19C, A30G
DNA 2: B16 DNA 2 with T31C, A42G
B18: NRC3_wobSeed130_DR5_G16C_o1 (dsDNA)
DNA 1: B16 DNA 1 with G16C, T19C
DNA 2: B16 DNA 2 with A42G, C45G
B19: NRC3_wobSeed137_DR5_A29T_o1 (dsDNA)
DNA 1: GCATATGTAGGTTACATCCGGGTCATTCTGGCTATGGCGATTGACAGCGTAGAATGAAGG
DNA 2: CCTTCATTCTACGCTGTCAATCGCCATAGCCAGAATGACCCGGATGTAACCTACATATGC
B20: NRC3_wobSeed137_DR5_G21A_o1 (dsDNA)
DNA 1: B19 DNA 1 with G21A, T29A
DNA 2: B19 DNA 2 with A32T, C40T
B21: NRC3_wobSeed72_DR2_o1 (dsDNA)
DNA 1: GCTCGAGTAGGTTACGGGGGCATTCAGGGATGAAGAGCGATTGACAGCGTAGAATGAAGG
DNA 2: CCTTCATTCTACGCTGTCAATCGCTCTTCATCCCTGAATGCCCCCGTAACCTACTCGAGC
B22: NRC3_wobSeed72_DR2_T24C_o1 (dsDNA)
DNA 1: B21 DNA 1 with T24C
DNA 2: B21 DNA 2 with A37G
B23: NRC3_wobSeed66_DR2_A17T_o1 (dsDNA)
DNA 1: GCAATACAGGGTCACTTGGCCAGAGTAGGTACGAATGCGATTGACAGCGTAGAATGAAGG
DNA 2: CCTTCATTCTACGCTGTCAATCGCATTCGTACCTACTCTGGCCAAGTGACCCTGTATTGC
B24: NRC3_wobSeed66_DR2_A27G_o1 (dsDNA)
DNA 1: B23 DNA 1 with T17A, A27G
DNA 2: B23 DNA 2 with T34C, A44T
B25: NRC3_wobSeed104_DR4_G7A_o1 (dsDNA)
DNA 1: GCTCTTATAGATCAATAGAGGTTAAGAAAGTGCGCTGCGATTGACAGCGTAGAATGAAGG
DNA 2: CCTTCATTCTACGCTGTCAATCGCAGCGCACTTTCTTAACCTCTATTGATCTATAAGAGC
B26: NRC3_wobSeed58_DR2_T12G_o1 (dsDNA)
DNA 1: GCATCGAAAGGGCGTGAGGTGAGTATACAGAAAGGCGCGATTGACAGCGTAGAATGAAGG
DNA 2: CCTTCATTCTACGCTGTCAATCGCGCCTTTCTGTATACTCACCTCACGCCCTTTCGATGC
B27: NRC3_wobSeed65_DR2_T12A_o1 (dsDNA)
DNA 1: GCATATGTAGGATATCGGGTCATTCAGTTTGCGCATGCGATTGACAGCGTAGAATGAAGG
DNA 2: CCTTCATTCTACGCTGTCAATCGCATGCGCAAACTGAATGACCCGATATCCTACATATGC
B28: NRC3_wobSeed106_DR4_G6C_o1 (dsDNA)
DNA 1: GCCTCCAAAGGTCGGTTGAGGTGAGTATACGGATAAGCGATTGACAGCGTAGAATGAAGG
DNA 2: CCTTCATTCTACGCTGTCAATCGCTTATCCGTATACTCACCTCAACCGACCTTTGGAGGC
B29: NRC3_wobSeed99_DR4_C23G_o1 (dsDNA)
DNA 1: GCTCTCGGAGGACACGAAAGGTGAGAGCTCGACATCGCGATTGACAGCGTAGAATGAAGG
DNA 2: CCTTCATTCTACGCTGTCAATCGCGATGTCGAGCTCTCACCTTTCGTGTCCTCCGAGAGC
B30: NRC3_wobSeed138_DR5_G9A_o1 (dsDNA)
DNA 1: GCGATACAAGGTCAGCTAGAGGCCAGAGTATGGAAAGCGATTGACAGCGTAGAATGAAGG
DNA 2: CCTTCATTCTACGCTGTCAATCGCTTTCCATACTCTGGCCTCTAGCTGACCTTGTATCGC
B31: NRC3_wobSeed138_DR5_A18T_o1 (dsDNA)
DNA 1: B30 DNA 1 with A9G, A18T
DNA 2: B30 DNA 2 with T43A, T52C

Where a chain is given by its changes, count along the chain named.

Chain of PXR:RXRa (O75469 whole entry, chain 1 of 2): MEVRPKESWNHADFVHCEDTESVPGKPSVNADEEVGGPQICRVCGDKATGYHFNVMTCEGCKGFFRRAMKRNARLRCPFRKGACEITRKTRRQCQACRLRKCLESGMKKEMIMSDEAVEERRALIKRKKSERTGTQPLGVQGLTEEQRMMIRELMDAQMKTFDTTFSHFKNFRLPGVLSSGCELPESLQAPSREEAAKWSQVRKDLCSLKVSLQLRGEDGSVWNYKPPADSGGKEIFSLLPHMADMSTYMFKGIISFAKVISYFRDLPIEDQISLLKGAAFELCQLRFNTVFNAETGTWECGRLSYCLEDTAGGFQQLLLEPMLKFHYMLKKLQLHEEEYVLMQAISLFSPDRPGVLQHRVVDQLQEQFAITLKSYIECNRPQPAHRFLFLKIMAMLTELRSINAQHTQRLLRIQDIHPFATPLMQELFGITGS
Chain of PXR:RXRa (P19793 whole entry, chain 2 of 2): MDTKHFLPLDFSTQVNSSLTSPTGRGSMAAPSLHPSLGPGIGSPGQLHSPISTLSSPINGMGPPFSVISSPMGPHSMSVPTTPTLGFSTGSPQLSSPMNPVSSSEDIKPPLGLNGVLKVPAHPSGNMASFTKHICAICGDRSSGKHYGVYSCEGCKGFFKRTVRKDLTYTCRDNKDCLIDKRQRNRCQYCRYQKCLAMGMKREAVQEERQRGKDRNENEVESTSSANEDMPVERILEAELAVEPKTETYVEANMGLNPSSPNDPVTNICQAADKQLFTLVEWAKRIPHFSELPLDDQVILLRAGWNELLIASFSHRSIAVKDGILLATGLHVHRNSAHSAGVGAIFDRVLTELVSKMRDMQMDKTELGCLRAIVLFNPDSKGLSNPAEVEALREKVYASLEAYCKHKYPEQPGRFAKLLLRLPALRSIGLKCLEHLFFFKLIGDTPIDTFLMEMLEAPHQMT

This series deals with PXR:RXRa (Homo sapiens, UniProt O75469;P19793 full;full). The experiment in a line: no ligand; PBM; 270 nM : 90 nM RXRa; PBS pH 7.4, 2% milk, 0.02% Triton X-100, 1 mM DTT, BSA, 0.4 mg/ml salmon testes DNA. Conditions: tags: His kept;His cleaved; copies: 1;1; label: surface-attached array probe. The procedure, abridged:
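Ligand-free nuclear receptor dimers were applied to custom Agilent 4×180K protein-binding microarrays whose double-stranded probes carried direct-repeat seeds, single-nucleotide variants, half-site ablations and random human genomic background sequences in 34-nt variable regions. Incubation lasted 1 h. Binding z-scores were computed against the random background probes from regression-normalized fluorescence.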
Consider B1, for which the binding signal was 3.31 PBM z-score against 500 random probes.

Take B2: the binding signal is 3.2 PBM z-score against 500 random probes.

B3: the binding signal is 0.44 PBM z-score against 500 random probes.

Consider B4, for which the binding signal was 3.4 PBM z-score against 500 random probes.

For B5, the binding signal is 3.17 PBM z-score against 500 random probes.

Take B6: the binding signal was 3.06 PBM z-score against 500 random probes.

B7: the binding signal is 3.23 PBM z-score against 500 random probes.

B8: the binding signal was 3.13 PBM z-score against 500 random probes.

Turning to B9, the binding signal was 3.08 PBM z-score against 500 random probes.

Turning to B10, the binding signal was 3.34 PBM z-score against 500 random probes.

In the case of B11, the binding signal was 0.48 PBM z-score against 500 random probes.

For the molecule B12, the binding signal was 0.48 PBM z-score against 500 random probes.

For the molecule B13, the binding signal was 3.44 PBM z-score against 500 random probes.

Consider B14, for which the binding signal is 3.29 PBM z-score against 500 random probes.

As for B15, the binding signal is 3.22 PBM z-score against 500 random probes.

Take B16: the binding signal was 3.37 PBM z-score against 500 random probes.

With B17, the binding signal was 3.26 PBM z-score against 500 random probes.

Consider B18, for which the binding signal is 3.28 PBM z-score against 500 random probes.

Turning to B19, the binding signal is 3.07 PBM z-score against 500 random probes.

For B20, the binding signal is 0.38 PBM z-score against 500 random probes.

As for B21, the binding signal was 3.16 PBM z-score against 500 random probes.

With B22, the binding signal was 3.05 PBM z-score against 500 random probes.

As for B23, the binding signal is 3.45 PBM z-score against 500 random probes.

In the case of B24, the binding signal was 3.32 PBM z-score against 500 random probes.

In the case of B25, the binding signal is 3.11 PBM z-score against 500 random probes.

With B26, the binding signal was 0.34 PBM z-score against 500 random probes.

Regarding B27, the binding signal is 3.03 PBM z-score against 500 random probes.

Take B28: the binding signal was 3.35 PBM z-score against 500 random probes.

Consider B29, for which the binding signal is 0.4 PBM z-score against 500 random probes.

As for B30, the binding signal is 3.38 PBM z-score against 500 random probes.

In the case of B31, the binding signal was 3.18 PBM z-score against 500 random probes.

(Values after paper PMC6555819, “Comprehensive study of nuclear receptor DNA binding provides a revised framework for understanding receptor specificity”.)
